Data: the supplement of paper PMC10567573

B1: FUT8 (parent)
chain: YPSYKVREKIETVKYPTYPEAEK

Variants of: B1
Assay: protein stability index of a GFP-peptide fusion (GPS, HEK-293T) (PSI 1-6); higher = more stable
Conditions: c terminus: native
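Further: lentivirally expressed fusions sorted by FACS into six bins by GFP to DsRed ratio, PSI derived from sequencing read proportions per bin multiplied by bin number.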

Variant | protein stability index
YPSYWVREKIETVKYPTYPEAEK | 2.49
YPSYYVREKIETVKYPTYPEAEK | 3.62
YPSYEVREKIETVKYPTYPEAEK | 5.15
YPSYDVREKIETVKYPTYPEAEK | 4.72
YPSYHVREKIETVKYPTYPEAEK | 4.34
YPSYCVREKIETVKYPTYPEAEK | 4.2
YPSYMVREKIETVKYPTYPEAEK | 4.45
YPSYAVREKIETVKYPTYPEAEK | 3.92
YPSYIVREKIETVKYPTYPEAEK | 4.45
YPSYLVREKIETVKYPTYPEAEK | 4.12
YPSYGVREKIETVKYPTYPEAEK | 4.29
YPSYFVREKIETVKYPTYPEAEK | 2.91
YPSYQVREKIETVKYPTYPEAEK | 4.68
YPSYSVREKIETVKYPTYPEAEK | 4.54
YPSYVVREKIETVKYPTYPEAEK | 4.16
YPSYPVREKIETVKYPTYPEAEK | 4.61
YPSYRVREKIETVKYPTYPEAEK | 4.32
YPSYTVREKIETVKYPTYPEAEK | 4.6
YPSYNVREKIETVKYPTYPEAEK | 4.81
YGSYKVREKIETVKYPTYPEAEK | 4.05
YISYKVREKIETVKYPTYPEAEK | 2.91
YLSYKVREKIETVKYPTYPEAEK | 3.84
YYSYKVREKIETVKYPTYPEAEK | 3.73
YHSYKVREKIETVKYPTYPEAEK | 3.01
YKSYKVREKIETVKYPTYPEAEK | 4.35

Variant | protein stability index
YTSYKVREKIETVKYPTYPEAEK | 3.35
YRSYKVREKIETVKYPTYPEAEK | 4.76
YMSYKVREKIETVKYPTYPEAEK | 3.58
YQSYKVREKIETVKYPTYPEAEK | 2.5
YFSYKVREKIETVKYPTYPEAEK | 3.51
YSSYKVREKIETVKYPTYPEAEK | 4.78
YNSYKVREKIETVKYPTYPEAEK | 3.9
YWSYKVREKIETVKYPTYPEAEK | 3.32
YESYKVREKIETVKYPTYPEAEK | 4.52
YVSYKVREKIETVKYPTYPEAEK | 2.75
YPKYKVREKIETVKYPTYPEAEK | 4.78
YPHYKVREKIETVKYPTYPEAEK | 4.39
YPPYKVREKIETVKYPTYPEAEK | 3.35
YPAYKVREKIETVKYPTYPEAEK | 4.02
YPLYKVREKIETVKYPTYPEAEK | 4.7
YPWYKVREKIETVKYPTYPEAEK | 3.02
YPNYKVREKIETVKYPTYPEAEK | 4.3
YPYYKVREKIETVKYPTYPEAEK | 4.12
YPFYKVREKIETVKYPTYPEAEK | 3.25
YPEYKVREKIETVKYPTYPEAEK | 4.18
YPTYKVREKIETVKYPTYPEAEK | 4.19
YPGYKVREKIETVKYPTYPEAEK | 3.92
YPMYKVREKIETVKYPTYPEAEK | 4.08
YPRYKVREKIETVKYPTYPEAEK | 3.79
YPVYKVREKIETVKYPTYPEAEK | 3.66

Variant | protein stability index
YPCYKVREKIETVKYPTYPEAEK | 4.08
YPDYKVREKIETVKYPTYPEAEK | 4.69
YPIYKVREKIETVKYPTYPEAEK | 4.44
YPSMKVREKIETVKYPTYPEAEK | 4.88
YPSSKVREKIETVKYPTYPEAEK | 4.59
YPSKKVREKIETVKYPTYPEAEK | 5.03
YPSRKVREKIETVKYPTYPEAEK | 4.29
YPSDKVREKIETVKYPTYPEAEK | 4.57
YPSHKVREKIETVKYPTYPEAEK | 4.93
YPSNKVREKIETVKYPTYPEAEK | 4.47
YPSVKVREKIETVKYPTYPEAEK | 4.52
YPSLKVREKIETVKYPTYPEAEK | 4.68
YPSWKVREKIETVKYPTYPEAEK | 3.66
YPSPKVREKIETVKYPTYPEAEK | 5.02
YPSGKVREKIETVKYPTYPEAEK | 5.38
YPSFKVREKIETVKYPTYPEAEK | 4.64
YPSTKVREKIETVKYPTYPEAEK | 4.91
YPSCKVREKIETVKYPTYPEAEK | 4.13
YPSAKVREKIETVKYPTYPEAEK | 4.86
YPSIKVREKIETVKYPTYPEAEK | 4.16
YPSQKVREKIETVKYPTYPEAEK | 4.52
YPSEKVREKIETVKYPTYPEAEK | 4
YPSYKTREKIETVKYPTYPEAEK | 4.25
YPSYKRREKIETVKYPTYPEAEK | 4.36
YPSYKQREKIETVKYPTYPEAEK | 4.13

Variant | protein stability index
YPSYKKREKIETVKYPTYPEAEK | 4.55
YPSYKYREKIETVKYPTYPEAEK | 4.15
YPSYKCREKIETVKYPTYPEAEK | 3.91
YPSYKLREKIETVKYPTYPEAEK | 4.69
YPSYKDREKIETVKYPTYPEAEK | 4.76
YPSYKMREKIETVKYPTYPEAEK | 3.86
YPSYKPREKIETVKYPTYPEAEK | 4.62
YPSYKFREKIETVKYPTYPEAEK | 2.83
YPSYKGREKIETVKYPTYPEAEK | 4.18
YPSYKNREKIETVKYPTYPEAEK | 4.62
YPSYKAREKIETVKYPTYPEAEK | 4.67
YPSYKIREKIETVKYPTYPEAEK | 3.89
YPSYKEREKIETVKYPTYPEAEK | 4.43
YPSYKSREKIETVKYPTYPEAEK | 4.48
YPSYKHREKIETVKYPTYPEAEK | 4.58
YPSYKVDEKIETVKYPTYPEAEK | 4.67
YPSYKVHEKIETVKYPTYPEAEK | 3.84
YPSYKVEEKIETVKYPTYPEAEK | 4.7
YPSYKVAEKIETVKYPTYPEAEK | 4.54
YPSYKVCEKIETVKYPTYPEAEK | 3.76
YPSYKVFEKIETVKYPTYPEAEK | 2.52
YPSYKVGEKIETVKYPTYPEAEK | 4.7
